For assay [1], the target named is human TCRvβ (BIM0444) (human). Briefly: SPR (Biacore), Table 21; set-up not restated. (In general: Surface plasmon resonance follows binding to a sensor surface in real time, without labels.)
For assay [2], the target named is cynomolgus TCRvβ (BJM0847) (cynomolgus). Briefly: SPR (Biacore), Table 21; set-up not restated.
Assay [3] deals with human TCRvβ (BIM0444) (human). Briefly: SPR (Biacore): antibody captured via anti-human Fc on CM5, BIM0444 as analyte, 1:1 fit.
Assay [4] deals with cynomolgus TCRvβ (BJM0847) (cynomolgus). The assay can be described thus: SPR (Biacore), comparison with the parental antibody.
The target is the same in assay [5]. The assay can be described thus: SPR (Biacore): antibody captured on Protein L chip, BJM0847 as analyte, 1:1 fit.

human TCRvβ (BIM0444) (human), sequence (A0A0K0K1A5 22-114): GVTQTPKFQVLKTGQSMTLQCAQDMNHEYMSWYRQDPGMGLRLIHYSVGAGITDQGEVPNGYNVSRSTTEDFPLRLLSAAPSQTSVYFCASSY

B1: BJM0901 (bispecific antibody, not shown: a dimerising Fc or GST; large carriers)
heavy: QVQLVQSGAEVKKPGSSVKVSCKASGTDFKLTYIHWVRQAPGQGLEWMGRIFPGSGNVKYNEKFKGRVTITADTSTSTAYMELSSLRSEDTAVYYCAGSYYSYDVLDYWGQGTTVTVSSGGGGSGGGGSGGGGSGGGGSDIQMTQSPSFLSASVGDRVTITCKASQNVDNRVAWYQQKPGKAPKALIYSSSHRYKGVPSRFSGSGSGTEFTLTISSLQPEDFATYFCQQFKSYPLTFGQGTKLEIKGGGGSQVQLVQSGAEVKKPGSSVKVSCKASGYTFTDYNMHWVRQAPGQGLEWIGYIYPYNGGTGYNQKFKSKATITADESTNTAYMELSSLRSEDTAVYYCARGRPAMDYWGQGTLVTVSS
light: DIQMTQSPSSLSASVGDRVTITCRASESVDNYGISFMNWFQQKPGKAPKLLIYAASNQGSGVPSRFSGSGSGTDFTLTISSLQPDDFATYYCQQSKEVPWTFGQGTKVEIK
By Kd is commonly meant the concentration at which binding is half-saturated. Low readings indicate higher affinity, high ones lower affinity. For the molecule B1, the Kd in assay [1] was determined as 7.09 nM; in assay [2], 55 nM.

B2: BJM0498 (scFv, part only; not given: Fc scaffold making it bivalent, part only)
scFv, part: QVQLVQSGAEVKKPGSSVKVSCKASGTDFKLTYIHWVRQAPGQGLEWMGRIFPGSGNVKYNEKFKGRVTITADTSTSTAYMELSSLRSEDTAVYYCAGSYYSYDVLDYWGQGTTVTVSSGGGGSGGGGSGGGGSGGGGSDIQMTQSPSFLSASVGDRVTITCKASQNVDNRVAWYQQKPGKAPKALIYSSSHRYKGVPSRFSGSGSGTEFTLTISSLQPEDFATYFCQQFKSYPLTFGQGTKLEIK
Consider B2, for which the Kd in assay [3] turned out to be 7.9 nM; in assay [1], 7.9 nM; in assay [2] it was 86 nM; in assay [5], 86 nM. In addition, the fold improvement of affinity compared to the parental antibody in assay [4] came to 6 fold.

B3: BJM0501 (scFv, part only; not given: Fc scaffold making it bivalent, part only)
scFv, part: QVQLVQSGAEVKKPGSSVKVSCKASGHDFRLTYIHWVRQAPGQGLEWMGRISAGSGNVKYNEKFKGRVTITADTSTSTAYMELSSLRSEDTAVYYCAGSYYSYDVLDYWGQGTTVTVSSGGGGSGGGGSGGGGSGGGGSDIQMTQSPSFLSASVGDRVTITCKASQNVADRVAWYQQKPGKAPKALIYSSSHRYKGVPSRFSGSGSGTEFTLTISSLQPEDFATYFCQQFKSYPLTFGQGTKLEIK
Turning to B3, the values for the Kd in assay [3] and in assay [5] were 4.1 nM and 87 nM, respectively. The fold improvement of affinity compared to the parental antibody in assay [4] is 6 fold.
